This experiment has as its target T1, human TACI (transmembrane activator and CAML interactor, TNFRSF13B) on Tregs, iTregs and Bregs (human) (UniProt O14836).
T1 sequence: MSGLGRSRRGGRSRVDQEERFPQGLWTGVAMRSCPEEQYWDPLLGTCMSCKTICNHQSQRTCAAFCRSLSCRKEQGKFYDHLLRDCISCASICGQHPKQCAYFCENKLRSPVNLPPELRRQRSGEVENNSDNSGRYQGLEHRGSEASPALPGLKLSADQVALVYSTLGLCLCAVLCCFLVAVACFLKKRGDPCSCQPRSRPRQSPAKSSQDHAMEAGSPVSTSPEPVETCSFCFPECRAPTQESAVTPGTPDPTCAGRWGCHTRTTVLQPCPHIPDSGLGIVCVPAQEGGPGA
Nature of the experiment: cell-based or functional assay.

Several values for one entry are separate records, joined by “and”; a condition that tells them apart may be missing. Identical values can stand only once.

As to “recombinant human APRIL (a proliferation-inducing ligand) (from UniProt O75888 105-250)”, the fold increase of MM cell-induced iTreg in CD4 T cells, against control media is > 1.5 fold and 1.5 to 4 fold; the percent Breg (CD19+CD24highCD38high) in B cells of MM patient BMMCs worked out at 25.2%; the percent IL-10 production in Bregs of MM patient BMMCs stood at 29.2%; the percent proliferative iTreg (CTV-Foxp3+) in cocultures with U266 MM cells, representative experiment worked out at 13.4%. Besides, the percent proliferative iTreg (CTV-Foxp3+) in cocultures with U266 MM cells, three experiments turned out to be 11.3% and the percent proliferative iTreg (CTV-Foxp3+CD4+) in cocultures with U266 MM cells, additional representative experiment was determined as 8.02%.

For the origin of these results see US20210113605A1.
